This is an account of results in patent publication US11389485.

Assay [1] concerns the target CD33 variant having the fragment encoded by exon 2 deleted (CD33ex2) (human) (UniProt P20138). Description: cell-based or functional assay.
Assay [2] deals with human CD33, full-length (CD33M) (human) (UniProt P20138). In words: cell-based or functional assay.

B1: gemtuzumab ozogamicin (antibody, INN chains, looked up, V domains shown)
VH: EVQLVQSGAEVKKPGSSVKVSCKASGYTITDSNIHWVRQAPGQSLEWIGYIYPYNGGTDYNQKFKNRATLTVDNPTNTAYMELSSLRSEDTAFYYCVNGNPWLAYWGQGTLVTVSS
VL: DIQLTQSPSTLSASVGDRVTITCRASESLDNYGIRFLTWFQQKPGKAPKLLMYAASNQGSGVPSRFSGSGSGTEFTLTISSLQPDDFATYYCQQTKEVPWSFGQGTKVEVKR
modifications: ozogamicin (calicheamicin) conjugate
For B1, the IC50 of GO cytotoxicity, HSPC CD33ex2 in assay [1] came to 0.246 µg/mL. In assay [2], this molecule came in with an IC50 of GO cytotoxicity (viable cell number, Celltiter Glo, 72 h), HL-60 cells of 0.0355 µg/mL; an IC50 of GO cytotoxicity (viable cell number, Celltiter Glo, 72 h), THP-1 cells of 0.0163 µg/mL; an IC50 of GO cytotoxicity, wild-type HSPC of 0.0934 µg/mL.
